Reference: PMC9811540

Target: UltraID-δ opioid receptor fusion protein (UniProt P41143)
Test: proximity labelling; test selection on live Expi293F cells expressing UltraID-DOR; 0.1 nM DTK-DNA, 0.1 nM Met-Enk-RF-DNA, 100 nM non-ligand DNA, biotin 2 μM, ATP 50 μM, 30 minutes; lysis with 1% SDS, streptavidin beads, qPCR

Work on Dmt-Tic-Lys (DTK), DNA-linked (peptide) yielded a fold enrichment over non-ligand DNA of 280 fold.

With Met-Enk-RF, DNA-linked (peptide) the fold enrichment over non-ligand DNA was 40 fold.
